Data on 3 molecules can be found in article PMC6882888, “Two-tiered enforcement of high-fidelity DNA ligation”.

Series [1] addresses T1, LIG1 E346A/E592A (EE/AA) (Homo sapiens, UniProt P18858 262-904, E346A;E592A). Nature of the series: X-ray crystallography (2.20 A); 200 mM Mg2+ in cryoprotectant, 1 mM ATP; Crystals: complex in 150 mM NaCl, 20 mM Tris-Cl pH 7.5, 1 mM TCEP, 1 mM ATP mixed 1:1 with 100 mM MES pH 6, 100 mM lithium acetate, 15% PEG3350; ligation/trapping: 50 mM NaMOPS pH 7.5, 1 mM DTT, 0.05 mg/mL BSA, ionic strength 150 mM (NaCl), 37 C. Conditions: protein: recombinant; tags: His-tag removed by TEV; nicked duplex, 11mer + 7mer on 18mer template, blunt ends.

Series [2] addresses T2, LIG1 WT (Homo sapiens, UniProt P18858 262-904). Nature of the series: X-ray crystallography (2.05 A); 200 mM Mg2+ in cryoprotectant, 1 mM ATP; AMP-DNA intermediate; 4 Mg2+ sites; Crystals: complex in 150 mM NaCl, 20 mM Tris-Cl pH 7.5, 1 mM TCEP, 1 mM ATP mixed 1:1 with 100 mM MES pH 6, 100 mM lithium acetate, 15% PEG3350; ligation/trapping: 50 mM NaMOPS pH 7.5, 1 mM DTT, 0.05 mg/mL BSA, ionic strength 150 mM (NaCl), 37 C. Conditions: protein: recombinant; tags: His-tag removed by TEV; nicked duplex, 11mer + 7mer on 18mer template, blunt ends.

The target in series [3] is T1, LIG1 E346A/E592A (EE/AA). The series can be described thus: X-ray crystallography (1.85 A); 2 mM EDTA in cryoprotectant, 1 mM ATP; 5'-adenylylated; Crystals: complex in 150 mM NaCl, 20 mM Tris-Cl pH 7.5, 1 mM TCEP, 1 mM ATP mixed 1:1 with 100 mM MES pH 6, 100 mM lithium acetate, 15% PEG3350; ligation/trapping: 50 mM NaMOPS pH 7.5, 1 mM DTT, 0.05 mg/mL BSA, ionic strength 150 mM (NaCl), 37 C. Conditions: protein: recombinant; tags: His-tag removed by TEV; nicked duplex, 11mer + 7mer on 18mer template, blunt ends, 8oxoG:A Hoogsteen pair at nick.

The target of series [4] is T2, LIG1 WT. Nature of the series: X-ray crystallography (1.55 A); 2 mM EDTA in cryoprotectant, 1 mM ATP; Crystals: complex in 150 mM NaCl, 20 mM Tris-Cl pH 7.5, 1 mM TCEP, 1 mM ATP mixed 1:1 with 100 mM MES pH 6, 100 mM lithium acetate, 15% PEG3350; ligation/trapping: 50 mM NaMOPS pH 7.5, 1 mM DTT, 0.05 mg/mL BSA, ionic strength 150 mM (NaCl), 37 C. Conditions: protein: recombinant; tags: His-tag removed by TEV; nicked duplex, 11mer + 7mer on 18mer template, blunt ends.

For a further series, the target named is LIG1 E592R (Homo sapiens, UniProt P18858 262-904, E592R). The series can be described thus: X-ray crystallography (1.85 A); 2 mM EDTA in cryoprotectant, 1 mM ATP; Crystals: complex in 150 mM NaCl, 20 mM Tris-Cl pH 7.5, 1 mM TCEP, 1 mM ATP mixed 1:1 with 100 mM MES pH 6, 100 mM lithium acetate, 15% PEG3350; ligation/trapping: 50 mM NaMOPS pH 7.5, 1 mM DTT, 0.05 mg/mL BSA, ionic strength 150 mM (NaCl), 37 C. Conditions: protein: recombinant; tags: His-tag removed by TEV; nicked duplex, 11mer + 7mer on 18mer template, blunt ends.
LIG1 E592R, sequence (P18858 262-904 E592R): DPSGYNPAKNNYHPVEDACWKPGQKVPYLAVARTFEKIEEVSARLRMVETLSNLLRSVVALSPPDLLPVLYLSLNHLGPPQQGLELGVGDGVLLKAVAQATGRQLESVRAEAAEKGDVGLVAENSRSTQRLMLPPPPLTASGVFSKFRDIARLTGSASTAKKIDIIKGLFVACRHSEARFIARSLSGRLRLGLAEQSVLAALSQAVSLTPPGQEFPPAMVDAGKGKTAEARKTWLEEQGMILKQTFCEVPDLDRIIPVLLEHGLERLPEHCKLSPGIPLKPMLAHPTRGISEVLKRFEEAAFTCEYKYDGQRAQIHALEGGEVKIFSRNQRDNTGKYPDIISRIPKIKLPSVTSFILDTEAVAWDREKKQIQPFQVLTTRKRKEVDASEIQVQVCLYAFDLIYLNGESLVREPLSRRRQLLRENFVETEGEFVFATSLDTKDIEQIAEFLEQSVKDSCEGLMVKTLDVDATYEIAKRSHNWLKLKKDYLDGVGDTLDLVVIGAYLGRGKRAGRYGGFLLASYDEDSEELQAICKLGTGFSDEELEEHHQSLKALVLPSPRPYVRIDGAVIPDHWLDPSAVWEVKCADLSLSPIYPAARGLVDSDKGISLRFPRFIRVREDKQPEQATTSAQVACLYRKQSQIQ

Series [5] addresses T1, LIG1 E346A/E592A (EE/AA). The series can be described thus: X-ray crystallography (1.75 A); 2 mM EDTA in cryoprotectant, 1 mM ATP; 5'-adenylylated; Crystals: complex in 150 mM NaCl, 20 mM Tris-Cl pH 7.5, 1 mM TCEP, 1 mM ATP mixed 1:1 with 100 mM MES pH 6, 100 mM lithium acetate, 15% PEG3350; ligation/trapping: 50 mM NaMOPS pH 7.5, 1 mM DTT, 0.05 mg/mL BSA, ionic strength 150 mM (NaCl), 37 C. Conditions: protein: recombinant; tags: His-tag removed by TEV; nicked duplex, 11mer + 7mer on 18mer template, blunt ends.

T1 sequence (P18858 262-904 E346A/E592A): as the sequence (P18858 262-904 E592R) above, with E85A, R331A counted along it
T2 sequence (P18858 262-904): as the sequence (P18858 262-904 E592R) above, with R331E counted along it

B1: nicked 18mer 3'ddC (oligos 1,2,3) (dsDNA)
DNA 1: GTCCGACGACGCATCAGC
DNA 2: GCTGATGCGTC
DNA 3: GTCGGAC
modifications: 3'-terminal C of 11mer is ddC; 5' phosphate on 7mer, 5'-adenylylated in the complex
With B1, the binding result in the series with LIG1 E346A/E592A (EE/AA) [1] and with LIG1 WT [2] was “binds” throughout.

B2: nicked 18mer 3'-8oxoG:A (oligos 3,5,6) (dsDNA)
DNA 1: GTCCGACAACGCATCAGC
DNA 2: GCTGATGCGTG
DNA 3: GTCGGAC
modifications: 3'-terminal G of 11mer is 8oxoG (opposite A); 5' phosphate on 7mer, 5'-adenylylated in the crystal
Turning to B2, the binding result with LIG1 E346A/E592A (EE/AA) [3] is listed as “binds”.

B3: nicked 18mer 3'OH (oligos 1,3,4) (dsDNA)
DNA 1: GTCCGACGACGCATCAGC
DNA 2: GCTGATGCGTC
DNA 3: GTCGGAC
modifications: 5' phosphate on 7mer, 5'-adenylylated in the crystal
As to B3, the binding result with LIG1 WT [4], in the series with LIG1 E592R and with LIG1 E346A/E592A (EE/AA) [5] was “binds” in each case.
